In publication PMC9352680, “A comprehensive thermodynamic model for RNA binding by the Saccharomyces cerevisiae Pumilio protein PUF4”:

T1: PUF4 RNA-binding domain (Saccharomyces cerevisiae, UniProt P25339 537-888)
T1 sequence: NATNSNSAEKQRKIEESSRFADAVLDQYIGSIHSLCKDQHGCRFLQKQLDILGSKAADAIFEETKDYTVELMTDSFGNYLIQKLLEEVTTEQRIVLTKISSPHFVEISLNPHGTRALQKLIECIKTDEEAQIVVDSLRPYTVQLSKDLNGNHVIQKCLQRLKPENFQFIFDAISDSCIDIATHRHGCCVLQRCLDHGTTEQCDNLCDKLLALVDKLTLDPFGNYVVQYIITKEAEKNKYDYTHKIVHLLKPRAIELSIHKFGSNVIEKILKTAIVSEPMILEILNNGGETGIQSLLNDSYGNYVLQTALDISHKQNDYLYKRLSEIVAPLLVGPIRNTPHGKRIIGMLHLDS

B1: Ia_S2_P5E.1_K5.1_C5.1_H5.1_A5.1_[T5A]_F5.1_T5.1 (ssRNA)
RNA: UUUGAUUAAUAUGAUAUCGUUCUUUCUUGUAAUAUUAUUCUUUCUCGAUAUCAUAUUAAUCUUU
B2: Ia_S2_P5E.1_K5.1_C5.1_H5.1_A5.1_[T6A]_F5.1_T5.1 (ssRNA)
RNA: UUUGAUUAAUAUGAUAUCGUUCUUUCUUGUAUAAUUAUUCUUUCUCGAUAUCAUAUUAAUCUUU
B3: Ia_S2_P5E.1_K5.1_C5.1_H5.1_A5.1_[T6C]_F5.1_T5.1 (ssRNA)
RNA: UUUGAUUAAUAUGAUAUCGUUCUUUCUUGUAUCAUUAUUCUUUCUCGAUAUCAUAUUAAUCUUU

These binders were tested against T1, PUF4 RNA-binding domain (assay: Mg; RNA-MaP; 20 mM Na-HEPES pH 7.4, 30 mM KOAc, 0.75 mM MgCl2, 0.1% Tween-20, 5% glycerol, 0.1 mg/mL BSA, 2 mM DTT; 25 C; 0.0125-409.6 nM protein). Conditions: tags: N-His6-TEV cleaved; C-SNAP kept, Cy3B-labelled; label: tethered on chip by stalled RNA polymerase.
ACAAACUGCAUAAUAACAAAC (ssRNA) [Ib_S3_P4E.1_K4.1_C4.1_H4.1_[T3C]_A4.1_[T7A]_F4.1_T4.1] gave a Kd of 1.45 µM.
With ACAAACAUUAUAUUAACAAAC (ssRNA) [Ib_S3_P4E.1_K4.1_C4.1_H4.1_[T1A]_[G2T]_A4.1_F4.1_T4.1] the Kd was > 2.3 µM.
Work on UCUCUUUGUAUACAUCUCUU (ssRNA) [Ia_S1_P3E.1_K3.1_C3.1_H3.1_A3.1_F3.1_[T7C]_T3.1] yielded a Kd of 0.0446 µM.
With ACAAACCGUAUUAUUCACAAAC (ssRNA) [Ib_S3_P5E.1_K5.1_C5.1_H5.1_[T1C]_A5.1_F5.1_[A10C]_T5.1] the Kd was > 2.3 µM.
With ACAAACUGAAUAAUAACAAAC (ssRNA) [Ib_S3_P4E.1_K4.1_C4.1_H4.1_[T3A]_A4.1_[T7A]_F4.1_T4.1] the Kd was > 2.3 µM.
ACAAACUGGAUUACUAACAAAC (ssRNA) [Ib_S3_P5E.1_K5.1_C5.1_H5.1_[T3G]_A5.1_F5.1_[T8C]_T5.1] was tested, and the Kd was > 2.3 µM.
ACAAACUCUAUAGUAACAAAC (ssRNA) [Ib_S3_P4E.1_K4.1_C4.1_H4.1_[G2C]_A4.1_[T7G]_F4.1_T4.1] was tested, and the Kd was > 2.3 µM.
Binder ACAAACUGUCUUACUAACAAAC (ssRNA) [Ib_S3_P5E.1_K5.1_C5.1_H5.1_[A4C]_A5.1_F5.1_[T8C]_T5.1] has a Kd of 1.03 µM.
Work on UCUCUUUAUAUAUAUCUCUU (ssRNA) [Ia_S1_P3E.1_K3.1_C3.1_H3.1_[G2A]_A3.1_F3.1_T3.1] yielded a Kd of 0.637 µM.
For ACAAACAGUAAAUUAACAAAC (ssRNA) [Ib_S3_P4E.1_K4.1_C4.1_H4.1_[T1A]_A4.1_[T5A]_F4.1_T4.1], the Kd was 0.596 µM.
With ACAAACUGCAUUACUAACAAAC (ssRNA) [Ib_S3_P5E.1_K5.1_C5.1_H5.1_[T3C]_A5.1_F5.1_[T8C]_T5.1] the Kd was > 2.3 µM.
With ACAAACAGUAGAUUAACAAAC (ssRNA) [Ib_S3_P4E.1_K4.1_C4.1_H4.1_[T1A]_A4.1_[T5G]_F4.1_T4.1] the Kd was 0.829 µM.
ACAAACUGAAUUAUAAACAAAC (ssRNA) [Ib_S3_P5E.1_K5.1_C5.1_H5.1_[T3A]_A5.1_F5.1_[T9A]_T5.1] was tested, and the Kd was > 2.3 µM.
For ACAAACUGGAUUAAUAACAAAC (ssRNA) [Ib_S3_P5E.1_K5.1_C5.1_H5.1_[T3G]_A5.1_F5.1_[T8A]_T5.1], the Kd was > 2.3 µM.
With ACAAACUAUAUUAAUAACAAAC (ssRNA) [Ib_S3_P5E.1_K5.1_C5.1_H5.1_[G2A]_A5.1_F5.1_[T8A]_T5.1] the Kd was 1.58 µM.
Work on ACAAACUGAAUACUAACAAAC (ssRNA) [Ib_S3_P4E.1_K4.1_C4.1_H4.1_[T3A]_A4.1_[T7C]_F4.1_T4.1] yielded a Kd of 1.13 µM.
Work on B1 yielded a Kd of 0.00427 µM.
B2 gave a Kd of 0.00233 µM.
Work on B3 yielded a Kd of 0.00173 µM.
ACAAACUAUUUAUUAACAAAC (ssRNA) [Ib_S3_P4E.1_K4.1_C4.1_H4.1_[G2A]_[A4T]_A4.1_F4.1_T4.1] was tested, and the Kd was > 2.3 µM.
In the case of ACAAACCGUAGAUUAACAAAC (ssRNA) [Ib_S3_P4E.1_K4.1_C4.1_H4.1_[T1C]_A4.1_[T5G]_F4.1_T4.1], the Kd is reported as 0.455 µM.
In the case of ACAAACAGUAUCUUAACAAAC (ssRNA) [Ib_S3_P4E.1_K4.1_C4.1_H4.1_[T1A]_A4.1_[A6C]_F4.1_T4.1], the Kd is reported as > 2.3 µM.
Binder ACAAACCGUAUUUUAACAAAC (ssRNA) [Ib_S3_P4E.1_K4.1_C4.1_H4.1_[T1C]_A4.1_[A6T]_F4.1_T4.1] has a Kd of 1.4 µM.
For ACAAACUGGAUUAUGAACAAAC (ssRNA) [Ib_S3_P5E.1_K5.1_C5.1_H5.1_[T3G]_A5.1_F5.1_[T9G]_T5.1], the Kd was > 2.3 µM.
With ACAAACUCCAUAUUAACAAAC (ssRNA) [Ib_S3_P4E.1_K4.1_C4.1_H4.1_[G2C]_[T3C]_A4.1_F4.1_T4.1] the Kd was > 2.3 µM.
Binder ACAAACUGCAUUUUAACAAAC (ssRNA) [Ib_S3_P4E.1_K4.1_C4.1_H4.1_[T3C]_A4.1_[A6T]_F4.1_T4.1] has a Kd of 1.91 µM.
